According to US8703143:

Legend:
Assay in all cases: ELISA on coated antigen, background subtracted
[1] = target: recombinant FN fragment 789 (human) (UniProt P02751)
[2] = target: recombinant FN domain 6 (human) (UniProt P02751)
[3] = target: large isoform of tenascin-C (UniProt P24821)
[4] = target: native FN 110 kD (B-) thermolysin fragment (human) (UniProt P02751)
[5] = target: fibronectin purified from the conditioned medium of the SV40-transformed cell line WI38VA13 (human) (UniProt P02751)
Chain of fibronectin purified from the conditioned medium of the SV40-transformed cell line WI38VA13 (human) (P02751 32-2477): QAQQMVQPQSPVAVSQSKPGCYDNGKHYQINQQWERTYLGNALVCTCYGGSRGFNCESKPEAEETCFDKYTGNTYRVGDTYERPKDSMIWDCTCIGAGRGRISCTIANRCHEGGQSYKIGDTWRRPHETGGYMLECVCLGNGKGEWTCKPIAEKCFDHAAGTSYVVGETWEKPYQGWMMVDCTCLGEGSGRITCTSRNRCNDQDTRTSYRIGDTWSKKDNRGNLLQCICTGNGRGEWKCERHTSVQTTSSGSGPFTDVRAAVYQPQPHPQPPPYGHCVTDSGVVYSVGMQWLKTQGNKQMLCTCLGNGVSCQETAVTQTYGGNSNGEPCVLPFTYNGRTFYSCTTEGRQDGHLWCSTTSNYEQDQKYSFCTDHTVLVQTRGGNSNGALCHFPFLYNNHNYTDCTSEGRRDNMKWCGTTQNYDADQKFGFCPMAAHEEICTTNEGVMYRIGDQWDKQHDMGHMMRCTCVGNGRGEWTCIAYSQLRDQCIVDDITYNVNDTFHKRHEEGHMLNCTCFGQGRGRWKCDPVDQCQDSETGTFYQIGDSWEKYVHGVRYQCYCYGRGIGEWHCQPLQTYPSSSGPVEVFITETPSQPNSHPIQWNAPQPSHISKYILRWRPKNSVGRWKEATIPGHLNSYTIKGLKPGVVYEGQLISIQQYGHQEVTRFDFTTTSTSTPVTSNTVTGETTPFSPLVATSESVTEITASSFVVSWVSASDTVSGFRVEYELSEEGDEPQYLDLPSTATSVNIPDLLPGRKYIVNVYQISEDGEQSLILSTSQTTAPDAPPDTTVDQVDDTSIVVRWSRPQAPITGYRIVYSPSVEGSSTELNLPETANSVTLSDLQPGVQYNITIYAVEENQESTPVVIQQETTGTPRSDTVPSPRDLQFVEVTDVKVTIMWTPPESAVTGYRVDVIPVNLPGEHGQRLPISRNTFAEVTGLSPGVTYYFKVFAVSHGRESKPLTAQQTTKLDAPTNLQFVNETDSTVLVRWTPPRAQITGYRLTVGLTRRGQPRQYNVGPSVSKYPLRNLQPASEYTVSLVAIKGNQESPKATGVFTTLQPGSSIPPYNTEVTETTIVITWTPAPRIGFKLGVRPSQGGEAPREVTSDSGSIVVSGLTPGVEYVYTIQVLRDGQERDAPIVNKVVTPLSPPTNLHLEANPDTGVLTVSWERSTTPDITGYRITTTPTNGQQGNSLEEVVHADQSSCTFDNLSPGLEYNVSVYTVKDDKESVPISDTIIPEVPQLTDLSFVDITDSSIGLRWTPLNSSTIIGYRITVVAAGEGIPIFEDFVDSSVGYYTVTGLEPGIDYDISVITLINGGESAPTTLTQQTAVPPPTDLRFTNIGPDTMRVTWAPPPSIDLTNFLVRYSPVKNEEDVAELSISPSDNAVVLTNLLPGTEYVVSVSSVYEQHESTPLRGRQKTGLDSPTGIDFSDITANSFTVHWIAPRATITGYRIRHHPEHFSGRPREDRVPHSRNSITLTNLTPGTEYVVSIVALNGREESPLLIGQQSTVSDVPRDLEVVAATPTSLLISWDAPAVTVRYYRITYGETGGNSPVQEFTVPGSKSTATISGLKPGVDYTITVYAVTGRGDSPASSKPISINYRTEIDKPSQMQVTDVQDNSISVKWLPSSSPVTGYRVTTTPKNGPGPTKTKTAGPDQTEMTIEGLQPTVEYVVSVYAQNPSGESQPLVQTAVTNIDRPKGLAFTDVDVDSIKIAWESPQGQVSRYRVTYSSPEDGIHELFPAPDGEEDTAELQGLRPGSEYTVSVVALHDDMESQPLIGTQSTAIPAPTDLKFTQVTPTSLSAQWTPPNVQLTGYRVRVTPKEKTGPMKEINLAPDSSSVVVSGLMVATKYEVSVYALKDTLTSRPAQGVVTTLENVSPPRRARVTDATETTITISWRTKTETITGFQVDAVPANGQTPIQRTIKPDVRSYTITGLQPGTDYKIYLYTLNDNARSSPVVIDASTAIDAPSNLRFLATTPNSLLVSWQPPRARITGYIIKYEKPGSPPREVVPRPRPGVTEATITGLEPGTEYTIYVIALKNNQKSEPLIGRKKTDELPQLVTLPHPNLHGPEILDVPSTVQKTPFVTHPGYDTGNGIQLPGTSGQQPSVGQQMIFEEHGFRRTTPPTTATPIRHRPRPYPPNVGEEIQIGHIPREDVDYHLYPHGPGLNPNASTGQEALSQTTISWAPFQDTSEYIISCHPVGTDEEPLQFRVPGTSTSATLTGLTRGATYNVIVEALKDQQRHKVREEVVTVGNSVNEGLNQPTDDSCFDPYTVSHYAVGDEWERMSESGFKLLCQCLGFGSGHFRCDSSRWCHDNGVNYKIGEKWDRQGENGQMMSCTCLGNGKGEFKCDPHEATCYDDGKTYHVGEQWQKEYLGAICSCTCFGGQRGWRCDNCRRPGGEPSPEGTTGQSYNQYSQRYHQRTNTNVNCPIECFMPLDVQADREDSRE

[6] = target: native FN 120 kD (B+) thermolysin fragment (human) (UniProt P02751)
[7] = target: recombinant ED-B domain of human fibronectin with a carboxy terminal hexahistidine tag (human) (UniProt P02751)
Chain of recombinant ED-B domain of human fibronectin with a carboxy terminal hexahistidine tag (human) (P02751 other isoform, or with tags, fused parts or gaps limits assumed): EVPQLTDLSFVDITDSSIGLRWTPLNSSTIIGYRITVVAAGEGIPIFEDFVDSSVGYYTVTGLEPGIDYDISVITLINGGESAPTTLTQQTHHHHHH

[8] = target: recombinant FN fragment 7B89 (human) (UniProt P02751)
Chain of recombinant FN fragment 7B89 (human) (P02751 other isoform, or with tags, fused parts or gaps limits assumed): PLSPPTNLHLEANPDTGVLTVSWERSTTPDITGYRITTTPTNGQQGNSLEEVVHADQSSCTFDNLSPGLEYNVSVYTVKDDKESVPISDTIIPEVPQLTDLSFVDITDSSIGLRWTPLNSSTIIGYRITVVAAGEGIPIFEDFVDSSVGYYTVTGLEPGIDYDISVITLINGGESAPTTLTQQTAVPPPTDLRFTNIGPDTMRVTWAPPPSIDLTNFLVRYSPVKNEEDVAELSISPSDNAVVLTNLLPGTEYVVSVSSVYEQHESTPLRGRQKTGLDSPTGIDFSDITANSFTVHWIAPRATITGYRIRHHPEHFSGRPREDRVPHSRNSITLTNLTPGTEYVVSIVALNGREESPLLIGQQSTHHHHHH

[9] = target: human plasma fibronectin (human) (UniProt P02751)

Chain of recombinant FN domain 6 (human) (P02751 other isoform, or with tags, fused parts or gaps limits assumed): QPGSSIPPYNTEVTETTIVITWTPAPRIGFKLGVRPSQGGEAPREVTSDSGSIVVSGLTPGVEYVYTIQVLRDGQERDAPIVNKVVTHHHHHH
Chain of recombinant FN fragment 789 (human) (P02751 other isoform, or with tags, fused parts or gaps limits assumed): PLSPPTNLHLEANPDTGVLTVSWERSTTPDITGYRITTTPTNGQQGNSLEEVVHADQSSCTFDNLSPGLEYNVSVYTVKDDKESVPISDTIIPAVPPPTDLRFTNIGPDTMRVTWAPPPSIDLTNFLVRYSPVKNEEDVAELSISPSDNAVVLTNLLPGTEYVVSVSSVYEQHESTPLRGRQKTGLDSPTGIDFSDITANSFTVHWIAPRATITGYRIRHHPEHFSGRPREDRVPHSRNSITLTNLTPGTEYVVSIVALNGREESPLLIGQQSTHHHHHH
Chain of native FN 110 kD (B-) thermolysin fragment (human) (P02751 other isoform, or with tags, fused parts or gaps limits assumed): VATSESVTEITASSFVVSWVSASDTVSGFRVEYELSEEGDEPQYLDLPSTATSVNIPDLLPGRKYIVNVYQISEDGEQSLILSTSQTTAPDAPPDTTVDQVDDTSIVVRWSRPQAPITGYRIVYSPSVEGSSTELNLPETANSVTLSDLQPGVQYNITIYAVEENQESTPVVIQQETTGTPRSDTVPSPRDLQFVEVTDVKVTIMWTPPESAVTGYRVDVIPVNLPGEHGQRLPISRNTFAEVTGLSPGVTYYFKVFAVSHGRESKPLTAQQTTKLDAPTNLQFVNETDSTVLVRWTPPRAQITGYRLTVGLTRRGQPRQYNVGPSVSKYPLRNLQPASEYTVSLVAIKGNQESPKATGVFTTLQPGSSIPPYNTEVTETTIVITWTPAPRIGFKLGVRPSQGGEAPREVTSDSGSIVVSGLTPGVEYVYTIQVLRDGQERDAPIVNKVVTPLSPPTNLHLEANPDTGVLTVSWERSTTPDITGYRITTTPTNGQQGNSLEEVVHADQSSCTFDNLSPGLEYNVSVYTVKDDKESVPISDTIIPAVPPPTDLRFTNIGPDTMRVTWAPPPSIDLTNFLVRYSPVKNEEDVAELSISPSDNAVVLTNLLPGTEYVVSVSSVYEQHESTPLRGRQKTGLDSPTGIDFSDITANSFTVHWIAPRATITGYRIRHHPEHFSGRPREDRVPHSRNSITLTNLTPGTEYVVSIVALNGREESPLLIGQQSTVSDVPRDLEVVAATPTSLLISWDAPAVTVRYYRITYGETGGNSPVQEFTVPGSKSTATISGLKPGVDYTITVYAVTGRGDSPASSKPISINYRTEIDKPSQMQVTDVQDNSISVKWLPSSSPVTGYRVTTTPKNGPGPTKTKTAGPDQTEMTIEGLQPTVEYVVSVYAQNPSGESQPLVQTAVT

| Substance | OD at 405 nm [1] | OD at 405 nm [2] | OD at 405 nm [3] | OD at 405 nm [4] | OD at 405 nm [5] | OD at 405 nm [6] | OD at 405 nm [7] | OD at 405 nm [8] | OD at 405 nm [9] |
| --- | --- | --- | --- | --- | --- | --- | --- | --- | --- |
| mAb BC-1 (antibody) | 0.05 OD 405 nm | 0.08 OD 405 nm | 0.06 OD 405 nm | 0.05 OD 405 nm | 1.2 OD 405 nm | 1.2 OD 405 nm | 0.15 OD 405 nm | 1.02 OD 405 nm | 0.09 OD 405 nm |
| mAb IST-6 (antibody) | 1.25 OD 405 nm | 0.03 OD 405 nm | 0.02 OD 405 nm | 1.2 OD 405 nm | 1.12 OD 405 nm | 0.02 OD 405 nm | 0.04 OD 405 nm | 0.01 OD 405 nm | 1.73 OD 405 nm |
